# Reference: US20240400670A1 (JIANGSU HENGRUI PHARMACEUTICALS, published 2024)
# T1: human APRIL (R&D Systems, 5860-AP-010/CF) (human, UniProt O75888 105-250, limits assumed)
# T1 sequence (looked up): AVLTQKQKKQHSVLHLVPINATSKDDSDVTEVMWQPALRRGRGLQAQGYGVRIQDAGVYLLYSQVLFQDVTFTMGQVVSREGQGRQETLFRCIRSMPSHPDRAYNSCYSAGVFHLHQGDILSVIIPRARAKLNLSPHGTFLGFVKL
# How the values were obtained:
# [1] = molecular target: T1, human APRIL (R&D Systems, …); test: cell-based or functional assay
# [2] = molecular target: BAFF (R&D Systems, 7537-BF); test: cell-based or functional assay
# [3] = molecular target: T1, human APRIL (R&D Systems, …); test: SPR (Biacore), Protein A capture of sample, 1:1 model
# Method: (§1) A certain amount of test sample was subjected to affinity capture by a biosensor chip Protein A (GE, 29127556), and then antigens at a series of concentration gradients were allowed to flow on the surface of the chip. The reaction signals were detected in real time by using Biacore (GE, 8 K) to obtain association and dissociation curves. After the dissociation was completed for each cycle, the biochip was washed and regenerated with a 10 mM glycine-hydrochloric acid solution at pH 1.5 (GE, BR-1003-54). Fitting was performed based on the experimental data using BlAevaluation version 4.1 software with a 1:1 model, and affinity values were obtained.
# [4] = molecular target: cynomolgus monkey BAFF (Kactus, BAF-CM412) (cynomolgus monkey, UniProt A0A2K5V2X4 134-285); test: as above
# Method: as §1
# [5] = molecular target: mouse BAFF (Acro Biosystems, BAF-M521y) (mouse, UniProt Q9WU72 127-309, limits assumed); test: as above
# Method: as §1
# [6] = molecular target: T2, human BAFF (Sino Biological, 10056-HNCH) (human, UniProt Q9Y275 134-285); test: as above
# T2 construct: also called BAFF protein
# Method: as §1
# [7] = molecular target: T1, human APRIL (R&D Systems, …); test: competition ELISA, blocks APRIL/BCMA; BCMA coated, biotin-APRIL
# Method: (§2) The specific procedures are as follows:
# (§3) The receptor protein was diluted to 2 μg/mL with a PBS (BasalMedia, B320) buffer at pH 7.4 and added to a 96-well microplate (Corning, 3590) at 100 μL/well. The plate was incubated at 4° C. overnight. After the liquid was discarded, 1 % Casein blocking solution (Thermo, 37528) was added at 200 μL/well for blocking, and the plate was incubated at 37° C. for 2 h. After the blocking was complete, the blocking solution was discarded, and the plate was washed 3 times with a PBST buffer (pH 7.4 PBS containing 0.1 % tween-20) for later use. After the biotin-labeled ligand protein at a fixed concentration was mixed with an antibody or fusion protein diluted in a gradient, the mixture was pre-incubated at 37° C. for 30 min and then added to the blocked microplate. The plate was incubated at 37° C. for 1.5 h. After the incubation was complete, the plate was washed 3 times with PBST. Streptavidin-HRP (Invitrogen, 434323, diluted at 1:4000) was added at 100 μL/well, and the plate was incubated at 37° C. for 1 h. The supernatant was removed. […] The absorbance values at 450 nm were taken using a microplate reader. Curves for the inhibition of binding of the ligands to the receptors were fitted using software, and the IC₅₀ values were calculated.
# [8] = molecular target: T3, human BAFF (ACROBiosystems, BAF-H52D4) (human, UniProt Q9Y275 134-285); test: ELISA, sample coated, BAFF titrated, anti-His-HRP
# T3 construct: detected with anti-His-HRP
# Method: as §2
# The test sample was diluted to 2 μg/mL with a PBS (BasalMedia, B320) buffer at pH 7.4 and added to a 96-well microplate (Coming, 3590) at 100 μL/well. The plate was incubated at 4° C. overnight. After the liquid was discarded, 5 % skim milk (BD, 232100) diluted with PBS was added at 300 μL/well for blocking, and the mixture was incubated at 37° C. for 2 h. After the blocking was completed, the blocking solution was discarded, and the plate was washed 3 times with a PBST buffer (pH 7.4, PBS containing 0.1 % tween-20). […] After the incubation, the plate was washed 3 times with PBST. […] After the plate was washed 3 times with PBST, a TMB chromogenic substrate (KPL, 5120-0077) was added at 100 μL/well, and the mixture was incubated at room temperature for 10⁻¹⁵ min, and then 1 M H₂SO₄ was added at 50 μL/well to terminate the reaction. The absorbance values at 450 nm were taken using a microplate reader. The binding curves of antibodies to antigens were fitted using software, and the EC₅₀ values were calculated.
# [9] = molecular target: T2, human BAFF (Sino Biological, 10056-HNCH); test: competition ELISA, blocks BAFF/BAFF-R; BAFF-R coated, biotin-BAFF
# Method: as §2, §3
# [10] = molecular target: T2, human BAFF (Sino Biological, 10056-HNCH); test: competition ELISA, blocks BAFF/BCMA; BCMA coated, biotin-BAFF
# Method: as §2, §3
# [11] = molecular target: T1, human APRIL (R&D Systems, …); test: competition ELISA, blocks APRIL/TACI; TACI coated, biotin-APRIL
# Method: as §2, §3
# [12] = molecular target: T2, human BAFF (Sino Biological, 10056-HNCH); test: competition ELISA, blocks BAFF/TACI; TACI coated, biotin-BAFF
# Method: as §2, §3
binder,measurement,setting,value
"RCT-18 (Fc fusion, control TACI-Fc; also called telitacicept; RC18) SRVDQEERFPQGLWTGVAMRSCPEEQYWDPLLGTCMSCKTICNHQSQRTCAAFCRSLSCRKEQGKFYDHLLRDCISCASICGQHPKQCAYFCENKLRSPVNLPPELDKTHTCPPCPAPEAEGAPSVFLFPPKPKDTLMISRTPEVTCVVVDVSHEDPEVKFNWYVDGVEVHNAKTKPREEQYNSTYRVVSVLTVLHQDWLNGKEYKCKVSNKALPSSIEKTISKAKGQPREPQVYTLPPSRDELTKNQVSLTCLVKGFYPSDIAVEWESNGQPENNYKTTPPVLDSDGSFFLYSKLTVDKSRWQQGNVFSCSVMHEALHNHYTQKSLSLSPGK","Activity in inhibiting proliferation of B cells (IC50, pM), APRIL",[1],1990 pM
same,"Activity in inhibiting proliferation of B cells (IC50, pM), BAFF",[2],70.1 pM
same,Kd,[3],0.0439 nM
same,koff,[3],0.00753 s⁻¹
same,kon,[3],1.72e+08 M⁻¹ s⁻¹
same,Kd,[4],0.258 nM
same,koff,[4],9.54e-05 s⁻¹
same,kon,[4],370000 M⁻¹ s⁻¹
same,Kd,[5],0.121 nM
same,koff,[5],8.98e-05 s⁻¹
same,kon,[5],740000 M⁻¹ s⁻¹
same,Kd,[6],0.186 nM
same,koff,[6],0.00018 s⁻¹
same,kon,[6],964000 M⁻¹ s⁻¹
same,IC50,[7],484 nM
same,EC50,[8],21.5 nM
same,IC50,[9],7.57 nM
same,IC50,[10],4.86 nM
same,IC50,[11],64.9 nM
same,IC50,[12],6.07 nM
